According to the supplement of paper PMC10567573:

B1: NECAB1 (parent)
chain: FSPNSPQFNVSGPGLLEEDNQWMT

Variants of: B1
Test: protein stability index of a GFP-peptide fusion (GPS, HEK-293T) (PSI 1-6); higher = more stable
Settings: c terminus: a fixed tail appended
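Note: lentivirally expressed fusions sorted by FACS into six bins by GFP to DsRed ratio, PSI derived from sequencing read proportions per bin multiplied by bin number.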

Variant | protein stability index
P6G | 2.34
P6H | 2.14
P6I | 2.34
P6K | 2.5
P6L | 2.51
P6M | 2.03
P6N | 2.56
P6Q | 2.48
P6R | 2.05
P6S | 2.62
P6T | 2.86
P6V | 2.56
P6W | 4.26
P6Y | 1.92
Q7A | 1.92
Q7C | 2
Q7D | 4.25
Q7E | 3.88
Q7F | 2.59
Q7G | 2.74
Q7H | 2.94
Q7I | 2.11
Q7K | 2.27
Q7L | 1.45

Variant | protein stability index
Q7M | 2.02
Q7N | 2.89
Q7P | 2.9
Q7R | 2.07
Q7S | 2.66
Q7T | 3.09
Q7V | 2.22
Q7W | 2.64
Q7Y | 1.72
F8A | 4.17
F8C | 3.42
F8D | 4.15
F8E | 4.44
F8G | 3.83
F8H | 3.77
F8I | 3.26
F8K | 3.78
F8L | 3.04
F8M | 3.65
F8N | 4.29
F8P | 3.47
F8Q | 3.79
F8R | 3.65
F8S | 4

Variant | protein stability index
F8T | 3.5
F8V | 3.61
F8W | 1.43
F8Y | 3.43
N9A | 2.35
N9C | 2.13
N9D | 3.67
N9E | 3.77
N9G | 3.23
N9H | 2.22
N9I | 2.05
N9K | 2.84
N9L | 2.12
N9M | 2.42
N9P | 3.06
N9Q | 2.67
N9R | 2.32
N9S | 2.84
N9T | 2.62
N9V | 2.09
N9W | 2.41
N9Y | 3.54
V10A | 3.5
V10C | 2.42

Variant | protein stability index
V10D | 4.09
V10E | 4.16
V10F | 2.28
V10G | 2.92
V10H | 3.63
V10I | 3.09
V10K | 2.94
V10L | 2.74
V10M | 3.33
V10N | 3.68
V10P | 3.16
V10Q | 3.32
V10R | 3.38
V10S | 3.19
V10T | 2.89
V10W | 1.87
V10Y | 2.89
S11A | 3.02
S11C | 2.54
S11D | 3.73
S11E | 3.4
S11F | 2
S11G | 2.76
S11H | 2.5

Variant | protein stability index
S11I | 2.9
S11K | 2.44
S11L | 2.91
S11M | 2.16
S11N | 3.31
S11P | 3.19
S11Q | 3.09
S11R | 2.62
S11T | 2.79
S11V | 2.51
S11W | 3.29
S11Y | 1.95
G12A | 2.85
G12C | 2.04
G12D | 3.13
G12E | 3.12
G12F | 2.21
G12H | 2.62
G12I | 2.42
G12K | 2.85
G12L | 2.47
G12M | 3.18
G12N | 2.77
G12P | 2.86

Variant | protein stability index
G12Q | 3.04
G12R | 2.7
G12S | 3.13
G12T | 3.22
G12V | 2.86
G12W | 1.74
G12Y | 2.14
P13A | 3.15
P13C | 2.49
P13D | 3.46
P13E | 3.58
P13F | 2.29
P13G | 2.89
P13H | 2.62
P13I | 3.27
P13K | 2.71
P13L | 2.39
P13M | 2.65
P13N | 3.5
P13Q | 3.12
P13R | 2.79
P13S | 3.02
P13T | 3.32
P13V | 2.75

Variant | protein stability index
P13W | 1.7
P13Y | 2.75
G14A | 3.44
G14C | 3.32
G14D | 3.73
G14E | 3.58
G14F | 2.35
G14H | 2.47
G14I | 2.29
G14K | 2.3
G14L | 2.62
G14M | 2.35
G14N | 2.89
G14P | 3.17
G14Q | 2.74
G14R | 2.63
G14S | 3.04
G14T | 2.52
G14V | 2.89
G14W | 1.96
G14Y | 2.22
L15A | 3.26
L15C | 3.04
